Assay results as given in patent US20140107039A1 (ROCKEFELLER UNIVERSITY, published 2014).

Biological target: Polycomb Repressive Complex 2 (PRC2), purified through FLAG-tagged human EED from HeLa or HEK293T nuclear … (human, UniProt O75530 1-441; Q15910 1-746)
Assay: cell-based or functional assay

Polycomb Repressive Complex 2 (PRC2), purified through FLAG-tagged human EED from HeLa or HEK293T nuclear …, sequence (O75530 whole entry, chain 1 of 2): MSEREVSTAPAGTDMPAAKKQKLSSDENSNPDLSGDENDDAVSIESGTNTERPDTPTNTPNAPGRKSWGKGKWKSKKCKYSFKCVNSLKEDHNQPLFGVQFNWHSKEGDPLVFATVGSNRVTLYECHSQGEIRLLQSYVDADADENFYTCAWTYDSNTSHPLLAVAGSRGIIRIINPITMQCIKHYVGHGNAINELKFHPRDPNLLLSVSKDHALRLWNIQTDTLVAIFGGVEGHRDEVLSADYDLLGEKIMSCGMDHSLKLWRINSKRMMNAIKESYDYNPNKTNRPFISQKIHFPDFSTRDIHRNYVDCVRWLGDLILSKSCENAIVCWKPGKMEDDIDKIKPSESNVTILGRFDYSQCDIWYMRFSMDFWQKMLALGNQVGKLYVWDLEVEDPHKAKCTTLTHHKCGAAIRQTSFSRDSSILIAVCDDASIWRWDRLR
Polycomb Repressive Complex 2 (PRC2), purified through FLAG-tagged human EED from HeLa or HEK293T nuclear …, sequence (Q15910 whole entry, chain 2 of 2): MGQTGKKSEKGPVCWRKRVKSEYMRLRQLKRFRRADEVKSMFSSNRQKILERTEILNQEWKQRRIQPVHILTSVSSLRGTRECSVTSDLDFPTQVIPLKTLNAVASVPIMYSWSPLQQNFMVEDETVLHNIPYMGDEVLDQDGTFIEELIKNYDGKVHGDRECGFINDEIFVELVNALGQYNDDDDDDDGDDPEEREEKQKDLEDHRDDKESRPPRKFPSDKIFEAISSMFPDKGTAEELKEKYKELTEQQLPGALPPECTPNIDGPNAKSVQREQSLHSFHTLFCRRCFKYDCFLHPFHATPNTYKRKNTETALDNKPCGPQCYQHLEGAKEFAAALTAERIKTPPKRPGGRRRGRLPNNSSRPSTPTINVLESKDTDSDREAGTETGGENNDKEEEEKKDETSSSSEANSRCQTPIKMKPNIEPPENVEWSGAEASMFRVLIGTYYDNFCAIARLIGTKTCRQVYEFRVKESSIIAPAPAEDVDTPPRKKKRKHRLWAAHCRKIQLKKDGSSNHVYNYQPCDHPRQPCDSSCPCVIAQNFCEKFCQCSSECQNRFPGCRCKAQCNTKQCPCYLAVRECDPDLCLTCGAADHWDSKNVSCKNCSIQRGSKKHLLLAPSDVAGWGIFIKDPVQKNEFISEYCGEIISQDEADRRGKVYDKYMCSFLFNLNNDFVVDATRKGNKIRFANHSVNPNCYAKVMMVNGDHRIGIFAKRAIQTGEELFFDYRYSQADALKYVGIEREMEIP

IC50, in vitro PRC2 methylation reactions: 8.9 µM
Binder: KQLATKAARISAPSTGGVKK [H3 peptide (18-37) with Lys27 replaced by Ile]
